# Data as given in patent US20170283834A1, “Processes for Producing A Fermentation Product Using A Fermenting Organism” (Novozymes A/S, priority 2014, published 2017).
# B1: PE001: Penicillium oxalicum glucoamylase SEQ ID NO: 14 with K79V substitution (protein, listed as Penicillium oxalicum)
# chain: RPDPKGGNLTPFIHKEGERSLQGILDNLGGRGKKTPGTAAGLFIASPNTENPNYYYTWTRDSALTAKCLIDLFEDSRAVFPIDRKYLETGIRDYKSSQAILQSVSNPSGTLKDGSGLGEPKFEIDLNPFSGAWGRPQRDGPALRATAMITYANYLISHGQKSDVSQVMWPIIANDLAYVGQYWNNTGFDLWEEVDGSSFFTIAVQHRALVEGSQLAKKLGKSCDACDSQPPQILCFLQSFWNGKYITSNINTQASRSGIDLDSVLGSIHTFDPEAACDDATFQPCSARALANHKVYVDSFRSIYKINAGLAEGSAANVGRYPEDVYQGGNPWYLATLGASELLYDALYQWDRLGKLEVSETSLSFFKDFDATVKIGSYSRNSKTYKKLTQSIKSYADGFIQLVQQYTPSNGSLAEQYDRNTAAPLSANDLTWSFASFLTATQRRDAVVPPSWGAKSANKVPTTCSASPVVGTYKAPTATFSSKTKCVPAKDIVPITFYLIENTYYGENVFMSGNITALGNWDAKKGFPLTANLYTQDQNLWFASVEFIPAGTPFEYKYYKVEPNGDITWEKGPNRVFVAPTGCPVQPHSNDVWQF
# modifications: mat_peptide (1)..(595) mature Penicillium oxalicum glucoamylase sequence
# Key:
# aorsin = target: T1, aorsin (Aspergillus oryzae, UniProt Q8NK92); experiment: PE001 protease stability, SDS-PAGE after protease treatment; assay type: biochemical
# T1 sequence (Q8NK92 216-652): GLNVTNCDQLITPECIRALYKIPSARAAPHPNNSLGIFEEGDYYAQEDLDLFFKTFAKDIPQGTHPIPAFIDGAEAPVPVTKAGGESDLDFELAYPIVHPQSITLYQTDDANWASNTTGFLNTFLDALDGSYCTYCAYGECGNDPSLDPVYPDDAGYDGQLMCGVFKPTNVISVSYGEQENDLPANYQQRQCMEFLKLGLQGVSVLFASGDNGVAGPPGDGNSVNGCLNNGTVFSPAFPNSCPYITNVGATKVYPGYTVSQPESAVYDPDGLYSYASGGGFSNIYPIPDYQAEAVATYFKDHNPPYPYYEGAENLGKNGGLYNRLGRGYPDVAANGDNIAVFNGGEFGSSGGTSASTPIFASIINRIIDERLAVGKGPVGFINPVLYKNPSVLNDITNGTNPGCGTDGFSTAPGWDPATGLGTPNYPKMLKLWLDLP
# Description: (§1) 40 μl enzyme solutions (1 mg/ml) in 50 mM sodium acetate buffer, pH 4.5, were mixed with 1/10 volume of 1 mg/ml protease solutions such as aspergillopepsin I described in Biochem J. 1975 April; 147(1):45-53, or the commercially available product from Sigma and aorsin described in Biochemical journal [0264-6021] Ichishima yr: 2003 vol:371 iss:Pt 2 pg:541 and incubated at 4 or 32° C. overnight. As a control experiment, H2O was added to the sample instead of proteases. The samples were loaded on SDS-PAGE to see if the glucoamylases are cleaved by proteases.
# aspergillopepsin I = experiment: as above; assay type: biochemical; conditions: for intact glucoamylase (ca. 70 kDa): aspergillopepsin I
# Description: as §1
# [1] = Glucoamylase activity (AGU) of variant compared to parent; assay type: biochemical; conditions: 37° C., pH 4.3, maltose 100 mM
# Description: The Novo Glucoamylase Unit (AGU) is defined as the amount of enzyme, which hydrolyzes 1 micromole maltose per minute under the standard conditions 37° C., pH 4.3, substrate: maltose 23.2 mM, buffer: acetate 0.1 M, reaction time 5 minutes.
# An autoanalyzer system may be used. Mutarotase is added to the glucose dehydrogenase reagent so that any alpha-D-glucose present is turned into beta-D-glucose. Glucose dehydrogenase reacts specifically with beta-D-glucose in the reaction mentioned above, forming NADH which is determined using a photometer at 340 nm as a measure of the original glucose concentration.
# The glucoamylase activity measures as AGU as described above was checked for the purified enzymes of the wild type Penicillium oxalicum and the variant glucoamylase.
# The Glucoamylase Unit (AGU) was defined as the amount of enzyme, which hydrolyzes 1 micromole maltose per minute under the standard conditions (37° C., pH 4.3, substrate: maltose 100 mM, buffer: acetate 0.1 M, reaction time 6 minutes).
# [2] = Protein thermal unfolding analysis (TSA, Thermal shift assay); assay type: physicochemical
# Description: Protein thermal unfolding of the T65A and Q327F variants, was monitored using Sypro Orange (In-vitrogen, S-6650) and was performed using a real-time PCR instrument (Applied Biosystems; Step-One-Plus).
# In a 96-well plate, 25 microliter micropurified sample in 50 mM Acetate pH4,5 at approx. 100 microgram/ml was mixed (5:1) with Sypro Orange (resulting conc.=5×; stock solution from supplier=5000×). The plate was sealed with an optical PCR seal. The PCR instrument was set at a scan-rate of 76° C. pr. hr, starting at 25° C. and finishing at 96° C.
# Protein thermal unfolding of the E501V+Y504T variant, was monitored using Sypro Orange (In-vitrogen, S-6650) and was performed using a real-time PCR instrument (Applied Biosystems; Step-One-Plus).
# In a 96-well plate, 15 microliter purified sample in 50 mM Acetate pH4,5 at approx. 50 microgram/ml was mixed (1:1) with Sypro Orange (resulting conc.=5×; stock solution from supplier=5000×) with or without 200 ppm Acarbose (Sigma A8980). The plate was sealed with an optical PCR seal. The PCR instrument was set at a scan-rate of 76 degrees C. pr. hr, starting at 25° C. and finishing at 96° C.
# Fluorescence was monitored every 20 seconds using in-built LED blue light for excitation and ROX-filter (610 nm, emission).
# Tm-values were calculated as the maximum value of the first derivative (dF/dK) (ref.: Gregory et al; J Biomol Screen 2009 14: 700.)
# [3] = Thermostability analysis by Differential Scanning Calorimetry (DSC); assay type: physicochemical
# Description: . The thermal denaturation temperature, Td (° C.), was taken as the top of the denaturation peak (major endothermic peak) in thermograms (Cp vs. T) obtained after heating enzyme solutions in selected buffers (50 mM Sodium Acetate, pH 4.0 or 4.8) at a constant programmed heating rate of 200K/hr.
# Sample- and reference-solutions (approximately 0.3 ml) were loaded into the calorimeter (reference: buffer without enzyme) from storage conditions at 10° C. and thermally pre-equilibrated for 10 minutes at 20° C. prior to DSC scan from 20° C. to 110° C. Denaturation temperatures were determined with an accuracy of approximately +/−1° C.
# protease = conditions: cited from earlier work
# host proteases = experiment: Cleavage during cultivation, SDS-PAGE of culture supernatants; set-up: species or system Aspergillus niger
# Description: Aspergillus transformant of the variant and the wild type Penicillium oxalicum glucoamylase were cultivated in 6-well MT plates containing 4× diluted YP-2% maltose medium supplemented with 10 mM sodium acetate buffer, pH4.5, at 32° C. for 1 week.
# The culture supernatants were loaded on SDS-PAGE.
molecule,measurement,setting,value
B1,intact glucoamylase (ca. 70 kDa),aorsin; incubation 4° C. overnight,100%
same,intact glucoamylase (ca. 70 kDa),aorsin; incubation 32° C. overnight,100%
same,intact glucoamylase (ca. 70 kDa),aspergillopepsin I; incubation 4° C. overnight,100%
same,intact glucoamylase (ca. 70 kDa),aspergillopepsin I; incubation 32° C. overnight,100%
same,SDS-PAGE result after protease treatment,"aspergillopepsin I; proteases (aspergillopepsin I, aorsin)",only showed one band corresponding to the intact molecule
same,Relative specific activity AGU/mg,[1],102%
same,Tm (Deg. Celsius) +/−0.4,"[2]; Table 14a, 50 mM Acetate pH 4,5",80.3 Deg. Celsius
same,Tm (Deg. Celsius) +/−0.4,"[2]; Table 14b, Acarbose: + (200 ppm)",86.9 Deg. Celsius
same,Tm (Deg. Celsius) +/−0.4,"[2]; Table 14b, Acarbose: −",79.5 Deg. Celsius
same,DSC Td (° C.) @ pH 4.0,"[3]; pH 4.0, 50 mM Sodium Acetate",82.1 °C
same,DSC Td (° C.) @ pH 4.8,"[3]; pH 4.8, 50 mM Sodium Acetate",83.4 °C
same,sensitivity to protease degradation relative to the parent,protease,reduced sensitivity to protease degradation relative to the parent
same,cleavage by host proteases during fermentation,host proteases,yielded only intact molecule
same,intact glucoamylase (ca. 70 kDa),"host proteases; culture supernatant, 32° C., 1 week",100%
